Results from patent US20110098217A1 (INDIANA UNIVERSITY RESEARCH AND TECHNOLOGY, published 2011).
Where two headings read alike, the source gives them in different places. Bridge positions count the residues as written; N and C are the ends. Square brackets hold non-standard residues; d marks the D form. Ends that are not written are not given here. * marks the point of attachment. COCH2CH2S‑Chol = CC(C)CCC[C@@H](C)[C@H]1CC[C@H]2[C@@H]3CC=C4C[C@@H](SCCC(=O)*)CC[C@]4(C)[C@H]3CC[C@]12C; Abu(4-SO3H) = N[C@@H](CCS(=O)(=O)O)C(=O)O; PhLac = O=C(O)[C@@H](O)Cc1ccccc1; Aib = CC(C)(N)C(=O)O

Experiments:
[1] = molecular target: T1, human glucagon receptor (human, UniProt P47871 26-477); assay: cell-based or functional assay
[2] = molecular target: T2, human GLP-1 receptor (human, UniProt P43220 24-463); assay: cell-based or functional assay
[3] = molecular target: T2, human GLP-1 receptor; assay: cell-based or functional assay; remark: listed apart in the source
[4] = molecular target: T1, human glucagon receptor; assay: cell-based or functional assay; remark: listed apart in the source
[5] = molecular target: T1, human glucagon receptor; assay: cell-based or functional assay; remark: listed apart in the source
[6] = molecular target: T1, human glucagon receptor; assay: SPA competition vs 125I-glucagon, receptor membranes
[7] = molecular target: T1, human glucagon receptor; assay: cell-based or functional assay; remark: listed apart in the source
[8] = molecular target: T1, human glucagon receptor; assay: cell-based or functional assay; remark: listed apart in the source
[9] = molecular target: T1, human glucagon receptor; assay: cell-based or functional assay; remark: listed apart in the source
[10] = molecular target: T1, human glucagon receptor; assay: cell-based or functional assay; remark: listed apart in the source
[11] = molecular target: T1, human glucagon receptor; assay: cell-based or functional assay; remark: listed apart in the source
[12] = molecular target: T2, human GLP-1 receptor; assay: cell-based or functional assay; remark: listed apart in the source
[13] = molecular target: T2, human GLP-1 receptor; assay: cell-based or functional assay; remark: listed apart in the source
[14] = molecular target: T2, human GLP-1 receptor; assay: cell-based or functional assay; remark: listed apart in the source

T1 sequence (P47871 26-477): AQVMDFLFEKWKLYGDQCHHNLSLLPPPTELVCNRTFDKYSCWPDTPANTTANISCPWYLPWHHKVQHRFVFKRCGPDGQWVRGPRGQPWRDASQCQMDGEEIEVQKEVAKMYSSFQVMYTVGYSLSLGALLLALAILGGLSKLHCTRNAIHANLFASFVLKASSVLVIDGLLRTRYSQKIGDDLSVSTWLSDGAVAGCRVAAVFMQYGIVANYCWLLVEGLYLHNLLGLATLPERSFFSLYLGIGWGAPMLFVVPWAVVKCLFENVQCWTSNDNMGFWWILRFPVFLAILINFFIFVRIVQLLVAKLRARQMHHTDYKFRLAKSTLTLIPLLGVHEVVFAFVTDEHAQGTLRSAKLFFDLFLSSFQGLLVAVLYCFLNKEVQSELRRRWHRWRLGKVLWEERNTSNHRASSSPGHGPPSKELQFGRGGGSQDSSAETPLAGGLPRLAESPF

B1: [G4T5, E9, E16K20(Lactam), D28] G(4-29) (peptide)
peptide: GTFTSEYSKYLDERRAKDFVQWLMDT-NH2
modifications: lactam 13-17; N-terminus assumed
SMILES: CSCC[C@H](NC(=O)[C@H](CC(C)C)NC(=O)[C@H](Cc1c[nH]c2ccccc12)NC(=O)[C@H](CCC(N)=O)NC(=O)[C@@H](NC(=O)[C@H](Cc1ccccc1)NC(=O)[C@H](CC(=O)O)NC(=O)[C@@H]1CCCCNC(=O)CC[C@H](NC(=O)[C@H](CC(=O)O)NC(=O)[C@H](CC(C)C)NC(=O)[C@H](Cc2ccc(O)cc2)NC(=O)[C@H](CCCCN)NC(=O)[C@H](CO)NC(=O)[C@H](Cc2ccc(O)cc2)NC(=O)[C@H](CCC(=O)O)NC(=O)[C@H](CO)NC(=O)[C@@H](NC(=O)[C@H](Cc2ccccc2)NC(=O)[C@@H](NC(=O)CN)[C@@H](C)O)[C@@H](C)O)C(=O)N[C@@H](CCCNC(=N)N)C(=O)N[C@@H](CCCNC(=N)N)C(=O)N[C@@H](C)C(=O)N1)C(C)C)C(=O)N[C@@H](CC(=O)O)C(=O)N[C@H](C(N)=O)[C@@H](C)O
B1 was tested. Which “Glucagon antagonism IC50 (inhibit 0.8 nM glucagon)” value [1] did it give?
The value was 12.7 nM.

What about the “GLP-1 agonism EC50” value [2] of the same binder?
The value was 151 nM.

And the “GLP-1 EC50” value [3]?
Its value is 151 nM.

B2: ANK2 (Bayer peptide) (peptide)
peptide: HSQGTFTSDYARYLDARRAREFIKWLVRGRG
B2 was tested. Which “GLP-1 agonism EC50” value [2] did it give?
The value was 0.28 nM.

What about the “GLP-1 EC50” value [3] of the same binder?
Its value is 0.28 nM.

B3: [PLA^4, E^9]Glucagon(aa4-29)-NH2 (peptide)
peptide: [PhLac]TFTSEYSKYLDSRRAQDFVQWLMNT-NH2
modifications: N-terminus assumed
SMILES: CSCC[C@H](NC(=O)[C@H](CC(C)C)NC(=O)[C@H](Cc1c[nH]c2ccccc12)NC(=O)[C@H](CCC(N)=O)NC(=O)[C@@H](NC(=O)[C@H](Cc1ccccc1)NC(=O)[C@H](CC(=O)O)NC(=O)[C@H](CCC(N)=O)NC(=O)[C@H](C)NC(=O)[C@H](CCCNC(=N)N)NC(=O)[C@H](CCCNC(=N)N)NC(=O)[C@H](CO)NC(=O)[C@H](CC(=O)O)NC(=O)[C@H](CC(C)C)NC(=O)[C@H](Cc1ccc(O)cc1)NC(=O)[C@H](CCCCN)NC(=O)[C@H](CO)NC(=O)[C@H](Cc1ccc(O)cc1)NC(=O)[C@H](CCC(=O)O)NC(=O)[C@H](CO)NC(=O)[C@@H](NC(=O)[C@H](Cc1ccccc1)NC(=O)[C@@H](NC(=O)[C@@H](O)Cc1ccccc1)[C@@H](C)O)[C@@H](C)O)C(C)C)C(=O)N[C@@H](CC(N)=O)C(=O)N[C@H](C(N)=O)[C@@H](C)O
For B3, which “IC50 (cAMP, inhibit 0.8 mM Glucagon)” value [4] is on record?
Its value is 84.4 nM.

B4: [hCys^9(SO3H)]Glucagon(aa2-29)-NH2 (peptide)
peptide: SQGTFTS[Abu(4-SO3H)]YSKYLDSRRAQDFVQWLMNT-NH2
How did the “cAMP IC50” value [5] turn out when B4 was run?
The value was 147 nM.

And the IC50 [6]?
Its IC50 is 13.2 nM.

B5: [A2E3, E9, E16K20(Lactam), D28]G(2-29) (peptide)
peptide: AEGTFTSEYSKYLDERRAKDFVQWLMDT-NH2
modifications: lactam 15-19
How did the “Glucagon antagonism IC50 (inhibit 0.2-0.8 nM glucagon)” value [7] turn out when B5 was run?
The value was 63.2 nM.

What about the “Glucagon antagonism IC50 (inhibit 0.8 nM glucagon)” value [1] of the same binder?
The value was 63.2 nM.

And the “Glucagon antagonism IC50 (inhibit 0.8 nM glucagon)” value [8]?
Its value is 151 nM.

And the “Glucagon IC50” value [9]?
The value was 63 nM.

What about the “Glucagon antagonism IC50 (inhibit 0.8 nM glucagon)” value [10] of the same binder?
The value was 63.2 nM.

B6: Aib depsi lactam G(2-29) (peptide)
peptide: [Aib]EGT[PhLac]TSDYSKYLDERRAKDFVQWLMDT-NH2
modifications: lactam 15-19; also: PLA6 linked to Thr5 by an ester bond (depsipeptide)
B6 was tested. Which “Glucagon antagonism IC50 (inhibit 0.4 nM glucagon)” value [11] did it give?
Its value is 11.8 nM.

What about the “GLP-1 agonism EC50” value [12] of the same binder?
The value was 5.83 nM.

B7: [hCys^9(SO3H)]Glucagon(aa5-29)-NH2 (peptide)
peptide: TFTS[Abu(4-SO3H)]YSKYLDSRRAQDFVQWLMNT-NH2
modifications: N-terminus assumed
SMILES: CSCC[C@H](NC(=O)[C@H](CC(C)C)NC(=O)[C@H](Cc1c[nH]c2ccccc12)NC(=O)[C@H](CCC(N)=O)NC(=O)[C@@H](NC(=O)[C@H](Cc1ccccc1)NC(=O)[C@H](CC(=O)O)NC(=O)[C@H](CCC(N)=O)NC(=O)[C@H](C)NC(=O)[C@H](CCCNC(=N)N)NC(=O)[C@H](CCCNC(=N)N)NC(=O)[C@H](CO)NC(=O)[C@H](CC(=O)O)NC(=O)[C@H](CC(C)C)NC(=O)[C@H](Cc1ccc(O)cc1)NC(=O)[C@H](CCCCN)NC(=O)[C@H](CO)NC(=O)[C@H](Cc1ccc(O)cc1)NC(=O)[C@H](CCS(=O)(=O)O)NC(=O)[C@H](CO)NC(=O)[C@@H](NC(=O)[C@H](Cc1ccccc1)NC(=O)[C@@H](N)[C@@H](C)O)[C@@H](C)O)C(C)C)C(=O)N[C@@H](CC(N)=O)C(=O)N[C@H](C(N)=O)[C@@H](C)O
B7 was tested. Which “cAMP IC50” value [5] did it give?
Its value is 98.3 nM.

What about the “cAMP pA2” value [5] of the same binder?
Its value is 6.77.

What about the IC50 [6] of the same binder?
The IC50 was 33.9 nM.

B8: K30-chol G(6-30) (peptide)
peptide: [PhLac]TSDYSKYLDERRAKDFVQWLMDTK(COCH2CH2S‑Chol)-NH2
modifications: lactam 11-15; N-terminus assumed
SMILES: CSCC[C@H](NC(=O)[C@H](CC(C)C)NC(=O)[C@H](Cc1c[nH]c2ccccc12)NC(=O)[C@H](CCC(N)=O)NC(=O)[C@@H](NC(=O)[C@H](Cc1ccccc1)NC(=O)[C@H](CC(=O)O)NC(=O)[C@@H]1CCCCNC(=O)CC[C@H](NC(=O)[C@H](CC(=O)O)NC(=O)[C@H](CC(C)C)NC(=O)[C@H](Cc2ccc(O)cc2)NC(=O)[C@H](CCCCN)NC(=O)[C@H](CO)NC(=O)[C@H](Cc2ccc(O)cc2)NC(=O)[C@H](CC(=O)O)NC(=O)[C@H](CO)NC(=O)[C@@H](NC(=O)[C@@H](O)Cc2ccccc2)[C@@H](C)O)C(=O)N[C@@H](CCCNC(=N)N)C(=O)N[C@@H](CCCNC(=N)N)C(=O)N[C@@H](C)C(=O)N1)C(C)C)C(=O)N[C@@H](CC(=O)O)C(=O)N[C@H](C(=O)N[C@@H](CCCCNC(=O)CCS[C@H]1CC[C@@]2(C)C(=CC[C@H]3[C@@H]4CC[C@H]([C@H](C)CCCC(C)C)[C@@]4(C)CC[C@@H]32)C1)C(N)=O)[C@@H](C)O
B8 was tested. Which “Glucagon antagonism IC50 (inhibit 0.4 nM glucagon)” value [11] did it give?
The value was 575 nM.

What about the “GLP-1 agonism EC50” value [12] of the same binder?
Its value is 14.4 nM.

B9: [H1A2E3, E9, E16K20(Lactam), D28]G(1-29) (peptide)
peptide: HAEGTFTSEYSKYLDERRAKDFVQWLMDT-NH2
modifications: lactam 16-20; N-terminus assumed
SMILES: CSCC[C@H](NC(=O)[C@H](CC(C)C)NC(=O)[C@H](Cc1c[nH]c2ccccc12)NC(=O)[C@H](CCC(N)=O)NC(=O)[C@@H](NC(=O)[C@H](Cc1ccccc1)NC(=O)[C@H](CC(=O)O)NC(=O)[C@@H]1CCCCNC(=O)CC[C@H](NC(=O)[C@H](CC(=O)O)NC(=O)[C@H](CC(C)C)NC(=O)[C@H](Cc2ccc(O)cc2)NC(=O)[C@H](CCCCN)NC(=O)[C@H](CO)NC(=O)[C@H](Cc2ccc(O)cc2)NC(=O)[C@H](CCC(=O)O)NC(=O)[C@H](CO)NC(=O)[C@@H](NC(=O)[C@H](Cc2ccccc2)NC(=O)[C@@H](NC(=O)CNC(=O)[C@H](CCC(=O)O)NC(=O)[C@H](C)NC(=O)[C@@H](N)Cc2c[nH]cn2)[C@@H](C)O)[C@@H](C)O)C(=O)N[C@@H](CCCNC(=N)N)C(=O)N[C@@H](CCCNC(=N)N)C(=O)N[C@@H](C)C(=O)N1)C(C)C)C(=O)N[C@@H](CC(=O)O)C(=O)N[C@H](C(N)=O)[C@@H](C)O
What does the source list for B9?
Glucagon antagonism IC50 (inhibit 0.2-0.8 nM glucagon) [7]: 129 nM; GLP-1 agonism EC50 [13]: 0.11 nM; Glucagon antagonism IC50 (inhibit 0.8 nM glucagon) [1]: 129 nM; GLP-1 agonism EC50 [2]: 0.11 nM; Glucagon IC50 [9]: 130 nM; GLP-1 EC50 [3]: 0.2 nM; Glucagon antagonism IC50 (inhibit 0.8 nM glucagon) [10]: 129 nM; GLP-1 agonism EC50 [14]: 0.11 nM

B10: [hCys^9(SO3H)]Glucagon(aa4-29)-NH2 (peptide)
peptide: GTFTS[Abu(4-SO3H)]YSKYLDSRRAQDFVQWLMNT-NH2
modifications: N-terminus assumed
SMILES: CSCC[C@H](NC(=O)[C@H](CC(C)C)NC(=O)[C@H](Cc1c[nH]c2ccccc12)NC(=O)[C@H](CCC(N)=O)NC(=O)[C@@H](NC(=O)[C@H](Cc1ccccc1)NC(=O)[C@H](CC(=O)O)NC(=O)[C@H](CCC(N)=O)NC(=O)[C@H](C)NC(=O)[C@H](CCCNC(=N)N)NC(=O)[C@H](CCCNC(=N)N)NC(=O)[C@H](CO)NC(=O)[C@H](CC(=O)O)NC(=O)[C@H](CC(C)C)NC(=O)[C@H](Cc1ccc(O)cc1)NC(=O)[C@H](CCCCN)NC(=O)[C@H](CO)NC(=O)[C@H](Cc1ccc(O)cc1)NC(=O)[C@H](CCS(=O)(=O)O)NC(=O)[C@H](CO)NC(=O)[C@@H](NC(=O)[C@H](Cc1ccccc1)NC(=O)[C@@H](NC(=O)CN)[C@@H](C)O)[C@@H](C)O)C(C)C)C(=O)N[C@@H](CC(N)=O)C(=O)N[C@H](C(N)=O)[C@@H](C)O
For B10, which “cAMP IC50” value [5] is on record?
Its value is 68.4 nM.

And the “cAMP pA2” value [5]?
The value was 7.22.

And the IC50 [6]?
The IC50 was 41.5 nM.

B11: K10-chol G(6-29) (peptide)
peptide: [PhLac]TSDK(COCH2CH2S‑Chol)SKYLDERRAKDFVQWLMDT-NH2
modifications: lactam 11-15; N-terminus assumed
SMILES: CSCC[C@H](NC(=O)[C@H](CC(C)C)NC(=O)[C@H](Cc1c[nH]c2ccccc12)NC(=O)[C@H](CCC(N)=O)NC(=O)[C@@H](NC(=O)[C@H](Cc1ccccc1)NC(=O)[C@H](CC(=O)O)NC(=O)[C@@H]1CCCCNC(=O)CC[C@H](NC(=O)[C@H](CC(=O)O)NC(=O)[C@H](CC(C)C)NC(=O)[C@H](Cc2ccc(O)cc2)NC(=O)[C@H](CCCCN)NC(=O)[C@H](CO)NC(=O)[C@H](CCCCNC(=O)CCS[C@H]2CC[C@@]3(C)C(=CC[C@H]4[C@@H]5CC[C@H]([C@H](C)CCCC(C)C)[C@@]5(C)CC[C@@H]43)C2)NC(=O)[C@H](CC(=O)O)NC(=O)[C@H](CO)NC(=O)[C@@H](NC(=O)[C@@H](O)Cc2ccccc2)[C@@H](C)O)C(=O)N[C@@H](CCCNC(=N)N)C(=O)N[C@@H](CCCNC(=N)N)C(=O)N[C@@H](C)C(=O)N1)C(C)C)C(=O)N[C@@H](CC(=O)O)C(=O)N[C@H](C(N)=O)[C@@H](C)O
What does the source list for B11?
Glucagon antagonism IC50 (inhibit 0.4 nM glucagon) [11]: 271 nM; GLP-1 agonism EC50 [12]: 35.2 nM
